Measurements: article PMC2873105 (Virology, 2010)

Molecular target: the molecule itself
Assay: native gel or EMSA

B1: MBP-Rep78 (adeno-associated virus type 2 Rep78 fused to MBP) (enzyme)
chain: MPGFYEIVIKVPSDLDGHLPGISDSFVNWVAEKEWELPPDSDMDLNLIEQAPLTVAEKLQRDFLTEWRRVSKAPEALFFVQFEKGESYFHMHVLVETTGVKSMVLGRFLSQIREKLIQRIYRGIEPTLPNWFAVTKTRNGAGGGNKVVDECYIPNYLLPKTQPELQWAWTNMEQYLSACLNLTERKRLVAQHLTHVSQTQEQNKENQNPNSDAPVIRSKTSARYMELVGWLVDKGITSEKQWIQEDQASYISFNAASNSRSQIKAALDNAGKIMSLTKTAPDYLVGQQPVEDISSNRIYKILELNGYDPQYAASVFLGWATKKFGKRNTIWLFGPATTGKTNIAEAIAHTVPFYGCVNWTNENFPFNDCVDKMVIWWEEGKMTAKVVESAKAILGGSKVRVDQKCKSSAQIDPTPVIVTSNTNMCAVIDGNSTTFEHQQPLQDRMFKFELTRRLDHDFGKVTKQEVKDFFRWAKDHVVEVEHEFYVKKGGAKKRPAPSDADISEPKRVRESVAQPSTSDAEASINYADRYQNKCSRHVGMNLMLFPCRQCERMNQNSNICFTHGQKDCLECFPVSESQPVSVVKKAYQKLCYIHHIMGKVPDACTACDLVNVDLDDCIFEQ
  binding result: binds
